Columns and labels:
[1] = biological target: membrane-bound GFP (pHR_EGFPligand)
[2] = biological target: membrane-bound GFP (pHR_EGFPligand); remark: listed apart in the source
[3] = biological target: membrane-bound GFP (pHR_EGFPligand); remark: listed apart in the source
[4] = biological target: membrane-bound GFP (pHR_EGFPligand); remark: listed apart in the source
[5] = biological target: membrane-bound GFP (pHR_EGFPligand); remark: listed apart in the source
[6] = biological target: membrane-bound GFP (pHR_EGFPligand); remark: listed apart in the source
[7] = biological target: membrane-bound GFP (pHR_EGFPligand); remark: listed apart in the source

Work on “LaG17_synNotch_TetRVP64 (synNotch receptor against GFP with a tTA intracellular domain)” yielded a % dsRed-Express-positive cells at the first sort of the transduced bulk receiver population after activation with antigen-expressing cells (flow cytometry) [1] of 10.3%, a % Activation in Bulk Population (dsRed-Express, 60 min, sender:receiver 1:1) [2] of 31.3% and a % Activation in Clonal Cell Lines (dsRed-Express, 60 min, sender:receiver 1:1) [2] of 73.5%. The Overall efficiency of indel formation at the CXCR4 locus (TIDE) after activation of receiver cells by GFP sender cells (1:1, 60 min), Experiment 1 [3] was 34.5%, the Overall efficiency of indel formation at the CXCR4 locus (TIDE) after activation of receiver cells by GFP sender cells (1:1, 60 min), Experiment 2 [3] was 41.3% and the Overall efficiency of indel formation at the CXCR4 locus (TIDE) after activation of receiver cells by GFP sender cells (1:1, 60 min), Experiment 3 [3] was 45.4%. It also gave an Indel formation frequency at the CXCR4 locus (TIDE) after activation by GFP sender cells, receiver cells kept in low FBS (G1 arrest) [4] of 37.4%, an Indel formation frequency at the CXCR4 locus (TIDE) after activation by GFP sender cells, receiver cells kept without FBS (G1 arrest) [4] of 31.4% and an Indel formation frequency at the CXCR4 locus (TIDE) after activation by GFP sender cells, receiver cells treated with nocodazole (G2/M arrest) [4] of 34.4%. It also gave a % dsRed-Express-positive receiver cells after co-culture with antigen-expressing sender cells at three sender-receiver ratios (5:1, 1:1, 1:5), flow cytometry after 48 h; 7.6% to 40.1% [5] of 40.1%, a % dsRed-Express-positive receiver cells after 10, 30, 60, 120 and 180 min of contact with antigen-expressing sender cells (ratio 1:1), flow cytometry 48 h later; 7.3% to 37.3% [6] of 37.3% and a synNotch-mediated fluorophore expression, bulk population before clonal expansion (differs from Table 2) [7] of 34.8%. It also gave a synNotch-mediated fluorophore expression, clonal cell line (differs from Table 2) [7] of 73.6%.
